For assay [1], the target named is SARS-CoV-2 nsp15 N164A (SARS-CoV-2). The experiment in a line: SEC; […] (20 mM Tris-HCl pH 8, 150 mM NaCl); […]. On the technique in general: In gel filtration, larger molecules generally elute earlier.
Assay [2] deals with SARS-CoV-2 nsp15 K290A (SARS-CoV-2). In words: SEC; […] (20 mM Tris-HCl pH 8, 150 mM NaCl); […].

Broadly, the stoichiometry N is the number of molecules, sites or subunits per partner or assembly.

As for SARS-CoV-2 nsp15 N164A (enzyme), the stoichiometry N in assay [1] was found to be 6. In assay [2], SARS-CoV-2 nsp15 K290A (enzyme) yielded a stoichiometry N of 6.

The values above are taken from PMC8880170.
